In patent publication US20120022129:

Biological target: flag-tagged WT HDAC2 (1-488)
Sequence (chain, as listed by the source): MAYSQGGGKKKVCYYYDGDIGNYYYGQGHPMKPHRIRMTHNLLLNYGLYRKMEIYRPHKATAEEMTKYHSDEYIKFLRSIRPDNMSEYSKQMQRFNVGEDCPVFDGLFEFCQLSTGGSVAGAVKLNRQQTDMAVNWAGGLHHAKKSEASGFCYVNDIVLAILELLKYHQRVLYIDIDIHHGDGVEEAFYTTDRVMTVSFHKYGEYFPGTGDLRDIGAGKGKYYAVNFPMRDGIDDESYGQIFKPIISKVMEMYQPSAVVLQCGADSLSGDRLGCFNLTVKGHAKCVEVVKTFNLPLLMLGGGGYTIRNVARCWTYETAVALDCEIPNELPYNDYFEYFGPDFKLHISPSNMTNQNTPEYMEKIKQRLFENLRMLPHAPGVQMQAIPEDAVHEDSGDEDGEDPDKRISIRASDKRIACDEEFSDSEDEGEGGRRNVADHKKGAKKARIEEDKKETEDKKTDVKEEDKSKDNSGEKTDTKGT

B1: protein kinase CK2 catalytic subunit CK2α (protein)
chain: MSGPVPSRARVYTDVNTHRPREYWDYESHVVEWGNQDDYQLVRKLGRGKYSEVFEAINITNNEKVVVKILKPVKKKKIKREIKILENLRGGPNIITLADIVKDPVSRTPALVFEHVNNTDFKQLYQTLTDYDIRFYMYEILKALDYCHSMGIMHRDVKPHNVMIDHEHRKLRLIDWGLAEFYHPGQEYNVRVASRYFKGPELLVDYQMYDYSLDMWSLGCMLASMIFRKEPFFHGHDNYDQLVRIAKVLGTEDLYDYIDKYNIELDPRFNDILGRHSRKRWERFVHSENQHLVSPEALDFLDKLLRYDHQSRLTAREAMEHPYFYTVVKDQARMGSSSMPGGSTPVSSANMMSGISSVPTPSPLGPLAGSPVIAAANPLGMPVPAAAGAQQ
- HDAC2 serine phosphorylation (phospho-serine western blot of immunoprecipitated flag-tagged HDAC2): HDAC2 phosphorylation seemed to correlate with the level of CK2α binding
